The source of these data is patent publication US20170174734A1, “DR6 Receptor Mediates the Leukemia Differentiation Activity of Angiocidin: A Potent Anti-Tumor Peptide” (Temple University-Of The Commonwealth System of Higher …, priority 2014, published 2017).

This assay deals with THP-1 cells. The assay can be described thus: Angiocidin-mediated up-regulation of CD14 in THP-1 cells, flow cytometry. The assay is classed as cell-based. The settings on record: 2.5 μg/ml Angiocidin plus 10 μg/ml rabbit anti-DR6 IgG or 0.10 μg/ml DR6-Fc, 24 hours, 1% fetal calf serum. The method, then:
THP-1 cells were grown for 24 hours in RPMI containing 1% fetal calf serum (NT) or containing the following: 2.5 μg/ml Angiocidin, 0.10 μg/ml DR6-Fc, 2.5 μg/ml Angiocidin plus 0.10 μg/ml, DR6-Fc, 10 μg/ml rabbit IgG, 2.5 μg/ml Angiocidin plus 10 μg/ml rabbit IgG, 10 μg/ml rabbit anti-DR6 IgG, 2.5 μg/ml Angiocidin plus 10 μg/ml rabbit anti-DR6 IgG. Percent CD14 positive cells were measured by flow cytometry.
On the technique in general: In flow cytometry, cells or beads pass a laser one at a time.

B1: DR6-Fc: DR6 extracellular-Fc chimeric recombinant protein (protein)
chain: QPEQKASNLIGTYRHVDRATGQVLTCDKCPAGTYVSEHCTNTSLRVCSSCPVGTFTRHENGIEKCHDCSQPCPWPMIEKLPCAALTDRECTCPPGMFQSNATCAPHTVCPVGWGVRKKGTETEDVRCKQCARGTFSDVPSSVMKCKAYTDCLSQNLVVIKPGTKETDNVCGTLPSFSSSTSPSPGTAIFPRPEHMETHEVPSSTYVPKGMNSTESNSSASVRPKVLSSIQEGTVPDNTSSARGKEDVNKTLPNLQVVNHQQGPHHRHILKLLPSMEATGGEKSSTPIKGPKRGHPRQNLHKHFDINEH
modifications: left off: a dimerising Fc or GST
notes: DR6 extracellular-Fc chimeric recombinant protein
As to B1, the “Inhibition of angiocidin-mediated upregulation of CD14 (percent CD14 positive cells)” value was “inhibit the angiocidin-mediated upregulation of CD14”.
